How the values were obtained:
GST = test: SEC
[1] = biological target: Gp22 (ALY06965.1), receptor-binding protein of C. difficile phage CDHS-1 (Clostridium difficile phage CDHS-1); test: SEC

GST (natural protein)
stoichiometry N (GST): 2

Gp22 (ALY06965.1), receptor-binding protein of C. difficile phage CDHS-1 (natural protein)
stoichiometry N [1]: 2

Source: article doi:10.1101/2021.07.05.451159
